Experiment [1] concerns the target T1, human NKG2D expressed on EL4 cells (human, UniProt P26718 1-216).
T1 construct: whole, on cells; also called extracellular NKG2D expressed on EL4 cells; cell-expressed human NKG2D
T1 sequence (looked up): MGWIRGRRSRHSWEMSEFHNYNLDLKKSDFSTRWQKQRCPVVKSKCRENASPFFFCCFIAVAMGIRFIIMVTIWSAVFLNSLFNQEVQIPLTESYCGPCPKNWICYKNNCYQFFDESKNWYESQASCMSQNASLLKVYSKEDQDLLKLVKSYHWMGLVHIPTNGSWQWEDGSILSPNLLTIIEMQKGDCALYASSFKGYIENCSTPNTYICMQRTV
In words: flow cytometry on EL4 cells expressing human NKG2D, anti-human IgG secondary, FOB of MFI. How it is done:
EL4 mouse lymphoma cell lines were engineered to express human NKG2D. […] The binding of the multi-specific binding proteins to NKG2D was detected using fluorophore-conjugated anti-human IgG secondary antibodies. Cells were analyzed by flow cytometry, and fold-over-background (FOB) was calculated using the mean fluorescence intensity (MFI) of NKG2D-expressing cells compared to parental EL4 cells.
Background: In flow cytometry, cells or beads pass a laser one at a time.

Experiment [2] has as its target T2, CD33 expressed on MV4-11 human AML cells (human, UniProt P20138 18-364).
T2 construct: whole, on cells; also called cell-expressed CD33
The experiment is described as follows: flow cytometry on MV4-11 cells, FOB of MFI. How it is done:
Human AML cell line MV4-11 expressing CD33 was used to assay the binding of TriNKETs to the tumor associated antigen. TriNKETs and the parental anti-CD33 monoclonal antibody were incubated with the cells, and the binding was detected using fluorophore-conjugated anti-human IgG secondary antibodies. Cells were analyzed by flow cytometry, and fold-over-background (FOB) was calculated using the mean fluorescence intensity (MFI) from TriNKETs and the parental monoclonal anti-CD33 antibody normalized to secondary antibody controls.

For experiment [3], the target named is T3, Tyrp-1 on B16F10 melanoma cells (UniProt P07147 25-537, limits assumed).
T3 construct: whole, on cells; also called Tyrp-1-positive B16F10 melanoma cells
In words: flow cytometry on B16F10 tumor cells, 60 ug/mL with four-fold dilutions, goat anti-mouse PE secondary. How it is done: (§1) 60 μg/mL of indicated antibodies with four-fold dilutions were added to 2×10⁵ B16F10 tumor cells (FIG. 58A) or EL4-mNKG2D cells (FIG. 58B). Binding was assessed using a goat anti-mouse PE secondary antibody followed by flow cytometric analysis.

The target of experiment [4] is T4, murine NKG2D overexpressed on EL4 cells (EL4-mNKG2D) (mouse, UniProt O54709 1-232).
T4 construct: whole, on cells; also called EL4-mNKG2D cells
T4 sequence (looked up): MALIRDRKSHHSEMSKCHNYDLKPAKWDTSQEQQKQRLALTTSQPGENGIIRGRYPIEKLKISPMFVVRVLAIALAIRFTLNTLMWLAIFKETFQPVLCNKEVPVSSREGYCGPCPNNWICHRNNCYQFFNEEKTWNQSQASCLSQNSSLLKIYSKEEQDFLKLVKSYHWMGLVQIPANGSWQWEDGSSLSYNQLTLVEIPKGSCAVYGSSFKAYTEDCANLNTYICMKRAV
In words: flow cytometry on EL4-mNKG2D cells, 60 ug/mL with four-fold dilutions, goat anti-mouse PE secondary. How it is done: as §1

T2 sequence (P20138 18-364): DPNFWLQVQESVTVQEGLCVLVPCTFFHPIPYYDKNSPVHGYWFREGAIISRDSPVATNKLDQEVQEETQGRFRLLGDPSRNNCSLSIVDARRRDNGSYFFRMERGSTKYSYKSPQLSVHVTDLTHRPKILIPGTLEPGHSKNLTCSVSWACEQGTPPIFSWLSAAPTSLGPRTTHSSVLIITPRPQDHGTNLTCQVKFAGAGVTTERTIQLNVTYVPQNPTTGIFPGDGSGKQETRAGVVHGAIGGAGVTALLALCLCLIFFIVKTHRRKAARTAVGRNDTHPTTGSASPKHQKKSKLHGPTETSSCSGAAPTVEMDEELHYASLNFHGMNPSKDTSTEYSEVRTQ

B1: CD33-TriNKET-C26 (ADI-28226 and a CD33-binding domain) (bispecific antibody, V domains shown)
VH 1: QVQLQQWGAGLLKPSETLSLTCAVYGGSFSGYYWSWIRQPPGKGLEWIGEIDHSGSTNYNPSLKSRVTISVDTSKNQFSLKLSSVTAADTAVYYCARARGPWSFDPWGQGTLVTVSS
VL 1: DIQMTQSPSTLSASVGDRVTITCRASQSISSWLAWYQQKPGKAPKLLIYKASSLESGVPSRFSGSGSGTEFTLTISSLQPDDFATYYCQQYGSFPITFGGGTKVEIK
VH 2: QVQLVQSGAEVKKPGASVKVSCKASGYTFTDYVVHWVRQAPGQGLEWMGYINPYNDGTKYNEKFKGRVTMTRDTSISTAYMELSRLRSDDTAVYYCARDYRYEVYGMDYWGQGTLVTVSS
VL 2: DIVLTQSPASLAVSPGQRATITCTASSSVNYIHWYQQKPGQPPKLLIYDTSKVASGVPARFSGSGSGTDFTLTINPVEANDTANYYCQQWRSYPLTFGQGTKLEIK
notes: also called C26-TriNKET-CD33
For the molecule B1, the binding result in experiment [1] and in experiment [2] was “binds” in each case.

B2: parental anti-CD33 monoclonal antibody (antibody, V domains shown)
VH: B1 VH 2
VL: B1 VL 2
notes: also called parental monoclonal anti-CD33 antibody; parental anti-CD33 antibody
For B2, in experiment [2], the binding result is “binds”.

B3: mcFAE-C26.99 TriNKET (bispecific antibody, mouse IgG2c)
light 1: DIQMTQSPSTLSASVGDRVTITCRASQSISSWLAWYQQKPGKAPKLLIYKASSLESGVPSRFSGSGSGTEFTLTISSLQPDDFATYYCQQYGSFPITFGGGTKVEIKRADAAPTVSIFPPSSEQLTSGGASVVCFLNNFYPKDINVKWKIDGSERQNGVLNSWTDQDSKDSTYSMSSTLTLTKDEYERHNSYTCEATHKTSTSPIVKSFNRNEC
heavy 1: QVQLQQWGAGLLKPSETLSLTCAVYGGSFSGYYWSWIRQPPGKGLEWIGEIDHSGSTNYNPSLKSRVTISVDTSKNQFSLKLSSVTAADTAVYYCARARGPWSFDPWGQGTLVTVSSAKTTAPSVYPLAPVCGGTTGSSVTLGCLVKGYFPEPVTLTWNSGSLSSGVHTFPALLQSGLYTLSSSVTVTSNTWPSQTITCNVAHPASSTKVDKKIEPRVPITQNPCPPLKECPPCAAPDLLGGPSVFIFPPKIKDVLMISLSPMVTCVVVDVSEDDPDVQISWFVNNVEVHTAQTQTHREDYNSTLRVVSALPIQHQDWMSGKEFKCKVNNRALPSPIEKTISKPRGPVRAPQVYVLPPPAEEMTKKEFSLTCMIKGFLPAEIAVDWTSNGRTEQNYKNTATVLDSDGSYFMYSRLRVQKSTWERGSLFACSVVHEGLHNHLTTKTISRSLGK
light 2: DIQMSQSPASLSASVGETVTITCRASGNIYNYLAWYQQKQGKSPHLLVYDAKTLADGVPSRFSGSGSGTQYSLKISSLQTEDSGNYYCQHFWSLPFTFGSGTKLEIKRADAAPTVSIFPPSSEQLTSGGASVVCFLNNFYPKDINVKWKIDGSERQNGVLNSWTDQDSKDSTYSMSSTLTLTKDEYERHNSYTCEATHKTSTSPIVKSFNRNEC
heavy 2: EVQLQQSGAELVRPGALVKLSCKTSGFNIKDYFLHWVRQRPDQGLEWIGWINPDNGNTVYDPKFQGTASLTADTSSNTVYLQLSGLTSEDTAVYFCTRRDYTYEKAALDYWGQGASVIVSSAKTTAPSVYPLAPVCGGTTGSSVTLGCLVKGYFPEPVTLTWNSGSLSSGVHTFPALLQSGLYTLSSSVTVTSNTWPSQTITCNVAHPASSTKVDKKIEPRVPITQNPCPPLKECPPCAAPDLLGGPSVFIFPPKIKDVLMISLSPMVTCVVVDVSEDDPDVQISWFVNNVEVHTAQTQTHREDYNSTLRVVSALPIQHQDWMSGKEFKCKVNNRALPSPIEKTISKPRGPVRAPQVYVLPPPAEEMTKKEFSLTCMITGFLPAEIAVDWTSNGRTEQNYKNTATVLDSDGSYLMYSKLTVQKSTWERGSLFACSVVHEGLHNHLTTKTISRSLGK
notes: also called murine cFAE-C26.99 TriNKET; TA99 TriNKET (mcFAE-C26.99)
B3: the binding result in experiment [3] and in experiment [4] was “binds” in each case.

The record behind these values is patent US20210079102A1 (DRAGONFLY THERAPEUTICS, published 2021).
